T1: FcγRIIa R (extracellular domain with a His tag at the C terminus) (human, UniProt P12318 34-217)
T1 construct: extracellular domain; expressed in FreeStyle293 cells; also called FcgRIIa R; FcγRIIa type R; not shown: His tag at the C terminus
T1 sequence (looked up): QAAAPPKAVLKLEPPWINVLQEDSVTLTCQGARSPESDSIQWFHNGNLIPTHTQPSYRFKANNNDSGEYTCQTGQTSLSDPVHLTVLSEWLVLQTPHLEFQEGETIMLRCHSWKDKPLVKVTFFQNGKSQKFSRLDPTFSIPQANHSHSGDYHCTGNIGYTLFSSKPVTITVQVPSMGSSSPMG

B1: GpH7-A5/GpH7-B3 variant S267_06M/GpL16-k0 (antibody, human IgG1, kappa)
heavy 1: not shown
heavy 2: not shown
light: DIVMTQSPLSLPVTPGEPASISCQASESLVHSNRNTYLHWYLQKPGQSPQLLIYKVSNRFSGVPDRFSGSGSGTDFTLKISRVEAEDVGVYYCSQNTHVPPTFGQGTKVEIERTVAAPSVFIFPPSDEQLKSGTASVVCLLNNFYPREAKVQWKVDNALQSGNSQESVTEQDSKDSTYSLSSTLTLSKADYEKHKVYACEVTHQGLSSPVTKSFNRGEC
notes: heterodimerized; mutation in one H chain; also called He Ab
B2: GpH7-A5/GpH7-B3 variant S337_09D/GpL16-k0 (antibody, human IgG1, kappa)
heavy 1: not shown
heavy 2: not shown
light: B1 light
notes: as for B1
B3: GpH7-A5/GpH7-B3 variant T335_02A/GpL16-k0 (antibody, human IgG1, kappa)
heavy 1: not shown
heavy 2: not shown
light: B1 light
notes: as for B1
B4: GpH7-A5/GpH7-B3 variant P271_08L/GpL16-k0 (antibody, human IgG1, kappa)
heavy 1: not shown
heavy 2: not shown
light: B1 light
notes: as for B1
B5: GpH7-A5/GpH7-B3 variant S337_07I/GpL16-k0 (antibody, human IgG1, kappa)
heavy 1: not shown
heavy 2: not shown
light: B1 light
notes: as for B1
B6: GpH7-A5/GpH7-B3 variant T335_05P/GpL16-k0 (antibody, human IgG1, kappa)
heavy 1: not shown
heavy 2: not shown
light: B1 light
notes: as for B1
B7: GpH7-A5/GpH7-B3 variant S337_19Q/GpL16-k0 (antibody, human IgG1, kappa)
heavy 1: not shown
heavy 2: not shown
light: B1 light
notes: as for B1
B8: GpH7-A5/GpH7-B3 variant S337_10E/GpL16-k0 (antibody, human IgG1, kappa)
heavy 1: not shown
heavy 2: not shown
light: B1 light
notes: as for B1
B9: GpH7-A5/GpH7-B3 variant S337_15Y/GpL16-k0 (antibody, human IgG1, kappa)
heavy 1: not shown
heavy 2: not shown
light: B1 light
notes: as for B1
B10: GpH7-A5/GpH7-B3 variant S324_06M/GpL16-k0 (antibody, human IgG1, kappa)
heavy 1: not shown
heavy 2: not shown
light: B1 light
notes: as for B1
B11: GpH7-A5/GpH7-B3 variant T335_13S/GpL16-k0 (antibody, human IgG1, kappa)
heavy 1: not shown
heavy 2: not shown
light: B1 light
notes: as for B1
B12: GpH7-A5/GpH7-B3 variant S239_08L/GpL16-k0 (antibody, human IgG1, kappa)
heavy 1: not shown
heavy 2: not shown
light: B1 light
notes: as for B1
B13: GpH7-A5/GpH7-B3 variant S298_08L/GpL16-k0 (antibody, human IgG1, kappa)
heavy 1: not shown
heavy 2: not shown
light: B1 light
notes: as for B1
B14: GpH7-A5/GpH7-B3 variant S337_06M/GpL16-k0 (antibody, human IgG1, kappa)
heavy 1: not shown
heavy 2: not shown
light: B1 light
notes: as for B1
B15: GpH7-A5/GpH7-B3 variant S267_03V/GpL16-k0 (antibody, human IgG1, kappa)
heavy 1: not shown
heavy 2: not shown
light: B1 light
notes: as for B1
B16: GpH7-A5/GpH7-B3 variant S267_09D/GpL16-k0 (antibody, human IgG1, kappa)
heavy 1: not shown
heavy 2: not shown
light: B1 light
notes: as for B1
B17: GpH7-A5/GpH7-B3 variant S239_18N/GpL16-k0 (antibody, human IgG1, kappa)
heavy 1: not shown
heavy 2: not shown
light: B1 light
notes: as for B1
B18: GpH7-A5/GpH7-B3 variant P331_15Y/GpL16-k0 (antibody, human IgG1, kappa)
heavy 1: not shown
heavy 2: not shown
light: B1 light
notes: as for B1
B19: GpH7-A5/GpH7-B3 variant S267_19Q/GpL16-k0 (antibody, human IgG1, kappa)
heavy 1: not shown
heavy 2: not shown
light: B1 light
notes: as for B1
B20: GpH7-A5/GpH7-B3 variant T335_10E/GpL16-k0 (antibody, human IgG1, kappa)
heavy 1: not shown
heavy 2: not shown
light: B1 light
notes: as for B1
B21: GpH7-A5/GpH7-B3 variant P238_04F/GpL16-k0 (antibody, human IgG1, kappa)
heavy 1: not shown
heavy 2: not shown
light: B1 light
notes: as for B1
B22: GpH7-A5/GpH7-B3 variant P331_20W/GpL16-k0 (antibody, human IgG1, kappa)
heavy 1: not shown
heavy 2: not shown
light: B1 light
notes: as for B1
B23: GpH7-A5/GpH7-B3 variant P331_16H/GpL16-k0 (antibody, human IgG1, kappa)
heavy 1: not shown
heavy 2: not shown
light: B1 light
notes: as for B1
B24: GpH7-A5/GpH7-B3 variant T335_07I/GpL16-k0 (antibody, human IgG1, kappa)
heavy 1: not shown
heavy 2: not shown
light: B1 light
notes: as for B1
B25: GpH7-A5/GpH7-B3 variant S239_10E/GpL16-k0 (antibody, human IgG1, kappa)
heavy 1: not shown
heavy 2: not shown
light: B1 light
notes: as for B1
B26: GpH7-A5/GpH7-B3 variant S337_18N/GpL16-k0 (antibody, human IgG1, kappa)
heavy 1: not shown
heavy 2: not shown
light: B1 light
notes: as for B1
B27: GpH7-A5/GpH7-B3 variant S337_03V/GpL16-k0 (antibody, human IgG1, kappa)
heavy 1: not shown
heavy 2: not shown
light: B1 light
notes: as for B1
B28: GpH7-A5/GpH7-B3 variant P331_04F/GpL16-k0 (antibody, human IgG1, kappa)
heavy 1: not shown
heavy 2: not shown
light: B1 light
notes: as for B1
B29: GpH7-A5/GpH7-B3 variant S337_16H/GpL16-k0 (antibody, human IgG1, kappa)
heavy 1: not shown
heavy 2: not shown
light: B1 light
notes: as for B1

Target: T1, FcγRIIa R (extracellular domain with a …)
Test: SPR Biacore, relative binding

He/Con_2aR | Binder
122 % of GpH7-A5/GpH7-B3/GpL16-k0 (=100) | B1
115 % of GpH7-A5/GpH7-B3/GpL16-k0 (=100) | B2
102 % of GpH7-A5/GpH7-B3/GpL16-k0 (=100) | B3
104 % of GpH7-A5/GpH7-B3/GpL16-k0 (=100) | B4
109 % of GpH7-A5/GpH7-B3/GpL16-k0 (=100) | B5
104 % of GpH7-A5/GpH7-B3/GpL16-k0 (=100) | B6
106 % of GpH7-A5/GpH7-B3/GpL16-k0 (=100) | B7
112 % of GpH7-A5/GpH7-B3/GpL16-k0 (=100) | B8
105 % of GpH7-A5/GpH7-B3/GpL16-k0 (=100) | B9
123 % of GpH7-A5/GpH7-B3/GpL16-k0 (=100) | B10
110 % of GpH7-A5/GpH7-B3/GpL16-k0 (=100) | B11
122 % of GpH7-A5/GpH7-B3/GpL16-k0 (=100) | B12
105 % of GpH7-A5/GpH7-B3/GpL16-k0 (=100) | B13
105 % of GpH7-A5/GpH7-B3/GpL16-k0 (=100) | B14
116 % of GpH7-A5/GpH7-B3/GpL16-k0 (=100) | B15
173 % of GpH7-A5/GpH7-B3/GpL16-k0 (=100) | B16
111 % of GpH7-A5/GpH7-B3/GpL16-k0 (=100) | B17
112 % of GpH7-A5/GpH7-B3/GpL16-k0 (=100) | B18
135 % of GpH7-A5/GpH7-B3/GpL16-k0 (=100) | B19
111 % of GpH7-A5/GpH7-B3/GpL16-k0 (=100) | B20
174 % of GpH7-A5/GpH7-B3/GpL16-k0 (=100) | B21
110 % of GpH7-A5/GpH7-B3/GpL16-k0 (=100) | B22
114 % of GpH7-A5/GpH7-B3/GpL16-k0 (=100) | B23
109 % of GpH7-A5/GpH7-B3/GpL16-k0 (=100) | B24
135 % of GpH7-A5/GpH7-B3/GpL16-k0 (=100) | B25
107 % of GpH7-A5/GpH7-B3/GpL16-k0 (=100) | B26
106 % of GpH7-A5/GpH7-B3/GpL16-k0 (=100) | B27
111 % of GpH7-A5/GpH7-B3/GpL16-k0 (=100) | B28
109 % of GpH7-A5/GpH7-B3/GpL16-k0 (=100) | B29
